Data on one variant can be found in IntAct's records for PubMed 11520064.

The labels stand for the following.
B1: Frizzled-8 (Mus musculus), Q61091 (parent)
chain: MEWGYLLEVTSLLAALAVLQRSSGAAAASAKELACQEITVPLCKGIGYNYTYMPNQFNHDTQDEAGLEVHQFWPLVEIQCSPDLKFFLCSMYTPICLEDYKKPLPPCRSVCERAKAGCAPLMRQYGFAWPDRMRCDRLPEQGNPDTLCMDYNRTDLTTAAPSPPRRLPPPPPPGEQPPSGSGHSRPPGARPPHRGGSSRGSGDAAAAPPSRGGKARPPGGGAAPCEPGCQCRAPMVSVSSERHPLYNRVKTGQIANCALPCHNPFFSQDERAFTVFWIGLWSVLCFVSTFATVSTFLIDMERFKYPERPIIFLSACYLFVSVGYLVRLVAGHEKVACSGGAPGAGGAGGAGGAAAAGAGAAGAGASSPGARGEYEELGAVEQHVRYETTGPALCTVVFLLVYFFGMASSIWWVILSLTWFLAAGMKWGNEAIAGYSQYFHLAAWLVPSVKSIAVLALSSVDGDPVAGICYVGNQSLDNLRGFVLAPLVIYLFIGTMFLLAGFVSLFRIRSVIKQQGGPTKTHKLEKLMIRLGLFTVLYTVPAAVVVACLFYEQHNRPRWEATHNCPCLRDLQPDQARRPDYAVFMLKYFMCLVVGITSGVWVWSGKTLESWRALCTRCCWASKGAAVGAGAGGSGPGGSGPGPGGGGGHGGGGGSLYSDVSTGLTWRSGTASSVSYPKQMPLSQV

In the test the parent is B1. The settings on record: with gopc_mouse Gopc.
As for V685A, the “effect of a mutation on the interaction” value was “disrupting interaction”.
